Measurements reported in patent US20160031986A1.
Positions count from the first letter of the chain named.

B1: 1A11 rat monoclonal antibody (antibody, V domains shown)
VH: EVQLVESGGGLVQPGRSMKLSCAASGFTFRNFPMAWVRQAPTRGLEWVATISSSDGTTYYRDSVKGRFTISRDNAKSTLYLQVNSLRSEDTATYYCSRGYYNSPFAYWGQGTLVTVSS
VL: DIQMTQSPASLSASLGETVTIECRASEDIYSNLAWYQQKPGNSPQLLIFDTNNLADGVPSRFSGSGSGTQSSLKINSLQSEDVASYFCQQYNNYPPTFGGGTKLELKR
B2: 14G1 rat monoclonal antibody (antibody, V domains shown)
VH: EVQLQQSGAELAKPGSSVKISCKASGYTFTNYDISWIKQTNGQGLEYLGYINTGSGGIYSNEKFKGKATLTVDKSSNTAFMQLSSLTPEDTAVYYCVREGNNFDHWGQGVKVTVSS
VL: DTVMTQSPASMSTSVGERVTVNCKASQSVGTIVAWFQQKPGQSPKRLIYLATYRHTGVPDRFIGSGFGRDFTLTISNVEAEDLAVYYCLQYGSRPFTFGAGTKLEIKR
B3: 38H12 rat monoclonal antibody (antibody, V domains shown)
VH: EVQLVESGGGLVQPGRSLKLSCAASGFTFSNYGMYWIRQAPTKGLQWVAFISHGGGITYYRDSVKGRFTISRDNAKSTLYLQMDSLRSEDTATYHCAALNWELGIDYWGQGVMVTVSS
VL: DIQMTQSPASLSASLGETISIECRASEDIYSNLAWYQKKSGKSPQLLIYAANRLQDGVPSRFSGSGSGTQYSLKISGMQPEDEGDYFCLQGSKFPLTFGSGTKLEIKR
B4: 37D10 rat monoclonal antibody (antibody, V domains shown)
VH: AVQLVESGGGLVQPKESLKISCAASGFTFSNAAMYWVRLAPGKGLEWVARIRTKPNNYATYYAESVKGRFTISRDDSKSMVYVQMDNLKTEDTAMYYCTAAPWRDSYAHVYWGQGVMVTVSS
VL: DIQMTQSPPVLSASVGDRVTLSCKASQNIHKNLDWYQQKHGDAPKLLIYYTDHLQTGVPSRFSGSGSATDYTLTISSLQPEDVATYYCYQYNGGPFTFGSGTKLEIKR
B5: 15D6 rat monoclonal antibody (antibody, V domains shown)
VH: EVQLQQSGPELAKPGSSVKISCKASGYTFTSSYISWIKQTTGQGLEYIGYINTGSGGTDYNEKFKDKATLTVDKSSRTVFMQLSSLTPGDSAVYYCAKSILLGSTYYLDYWGQGVMVTVSS
VL: DTVLTQSPALAVSLGQRVTISCKASRSLSSPMYSYIYWYQQKLGQQPRLLIYRASTLASGVPARFSGSGSGTDFTLNIDPVEADDIATYFCQQSWSDPFTFGSGTKLEIKR
B6: 14A11 rat monoclonal antibody (antibody, V domains shown)
VH: B5 VH with S31N, I48V, T58A, D66G, V79A, Y106C, L108F, M116L
VL: B5 VL with D1N, L28V, L43P, R48K
B7: 32C7 rat monoclonal antibody (antibody, V domains shown)
VH: EVQLVESGGGLVQPGRSLKLSCLASGFPFSSVWMTWIRQAPGKGLEWIATITNSGASTYYSASVKGRFTISRDNVKSTLYLQMTSLGSEDTATYYCTRVGTSFDYWGQGVMVTVSS
VL: DIQMTQSPASLSASLGETVTIECRASDDIYNGLAWFQQKPGKSPQLLIYDANTLHTGVPSRFSGSGSGTQFSLKINSLQSEDVASYFCQQFYDYPPYTFGAGTKLELKR
B8: h1A11.2 (antibody, V domains shown)
VH: EVQLVESGGGLVQPGGSLRLSCAASGFTFSNFPMAWVRQAPGKGLEWVATISSSDGTTYYRDSVKGRFTISRDNAKNSLYLQMNSLRAEDTAVYYCARGYYNSPFAYWGQGTLVTVSS
VL: DIQMTQSPSSLSASVGDRVTITCRASEDIYSNLAWYQQKPGKSPKLLIFDTNNLADGVPSRFSGSGSGTDSTLTISSLQPEDFATYFCQQYNNYPPTFGQGTKLEIKR
B9: h1A11.3 (antibody, V domains shown)
VH: B8 VH
VL: B8 VL with S43A, S71F, F87Y

target: cynomolgus monkey DLL4 extracellular domain (cynomolgus monkey); assay: Biacore SPR

| Kd [nM] | koff [s⁻¹] | kon [M⁻¹ s⁻¹] | Binder |
| --- | --- | --- | --- |
| 8.1 | 0.00093 | 110000 | B1 |
| 10.5 | 0.00041 | 39000 | B2 |
| 0.4 | 9.8e-05 | 260000 | B3 |
| < 617 | – | 40000 | B4 |
| 14.9 | 0.00083 | 56000 | B5 |
| 11.6 | 0.0012 | 110000 | B6 |
| 0.03 | 6.3e-06 | 220000 | B7 |

target: cynomolgus monkey DLL4 extracellular domain (cynomolgus monkey); assay: binding ELISA

| EC50 [nM] | Binder |
| --- | --- |
| 0.13 | B8 |
| 0.16 | B9 |
